# Source: article PMC9482650, “Quantitative fragmentomics allow affinity mapping of interactomes” (Nature Communications, 2022)
# B1: SLC17A1, Q14916 (peptide)
# chain: WAKEKQHTRL
# B2: KCNA6, P17658 (peptide)
# chain: YAEKRMLTEV
# B3: CSPG4, Q6UVK1 (peptide)
# chain: PALKNGQYWV
# B4: DFNB31, Q9P202 (peptide)
# chain: FLVTEFNVML
# B5: KCNB1, Q14721 (peptide)
# chain: AHGSTRDQSI
# What was measured:
# Assay in all cases: holdup assay
# Set-up in all cases: key: below the threshold = too weak to quantify, mostly under pKd 3.1 to 4
# Details in all cases: plain residues with an end cap or a label only (N-terminal biotin on a linker: ado-ado)
# MAGI2_3, Q86UL8 = molecular target: MAGI2_3, Q86UL8
# ARHGEF12, Q9NZN5-2 = molecular target: ARHGEF12, Q9NZN5-2
# MAGI2_2, Q86UL8 = molecular target: MAGI2_2, Q86UL8
# SCRIB_3, Q14160 = molecular target: SCRIB_3, Q14160
# GRASP, Q7Z6J2 = molecular target: GRASP, Q7Z6J2
# MPDZ_5, O75970 = molecular target: T1, MPDZ_5, O75970
# T1 sequence (O75970 695-796, limits assumed, looked up): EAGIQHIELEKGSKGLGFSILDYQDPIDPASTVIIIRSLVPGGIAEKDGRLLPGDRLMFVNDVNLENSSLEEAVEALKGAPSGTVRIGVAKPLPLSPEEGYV
# DLG2_2, Q15700 = molecular target: DLG2_2, Q15700
# DLG5_1, Q8TDM6 = molecular target: DLG5_1, Q8TDM6
# PDLIM1, O00151 = molecular target: PDLIM1, O00151
# DLG4_3, P78352 = molecular target: DLG4_3, P78352
# SHANK1, Q9Y566 = molecular target: T2, SHANK1, Q9Y566
# T2 sequence (Q9Y566 658-767, limits assumed, looked up): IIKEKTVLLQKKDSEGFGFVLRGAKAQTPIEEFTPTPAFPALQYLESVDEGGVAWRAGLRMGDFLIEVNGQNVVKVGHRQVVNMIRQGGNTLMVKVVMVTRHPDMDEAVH
# TJP1_2, Q07157 = molecular target: TJP1_2, Q07157
# GORASP2, Q9H8Y8 = molecular target: GORASP2, Q9H8Y8
# LDB3, O75112 = molecular target: LDB3, O75112
# TJP2_1, Q9UDY2 = molecular target: TJP2_1, Q9UDY2
# SCRIB_2, Q14160 = molecular target: SCRIB_2, Q14160
# MAGI1_2, Q96QZ7 = molecular target: MAGI1_2, Q96QZ7
# SIPA1L2, Q9P2F8 = molecular target: T3, SIPA1L2, Q9P2F8
# T3 sequence (Q9P2F8 945-1036, limits assumed, looked up): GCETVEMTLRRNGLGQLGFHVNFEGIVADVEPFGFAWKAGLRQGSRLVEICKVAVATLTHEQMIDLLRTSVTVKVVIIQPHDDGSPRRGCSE
# RADIL, Q96JH8 = molecular target: T4, RADIL, Q96JH8
# T4 sequence (Q96JH8 971-1071, limits assumed, looked up): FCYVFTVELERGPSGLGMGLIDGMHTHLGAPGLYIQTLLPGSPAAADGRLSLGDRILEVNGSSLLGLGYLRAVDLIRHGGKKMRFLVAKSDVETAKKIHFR
# DLG3_3, Q92796 = molecular target: T5, DLG3_3, Q92796
# T5 sequence (Q92796 374-475, limits assumed, looked up): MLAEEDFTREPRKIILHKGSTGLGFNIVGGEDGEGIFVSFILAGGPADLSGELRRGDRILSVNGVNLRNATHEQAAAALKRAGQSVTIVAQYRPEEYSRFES
# LIN7A, O14910 = molecular target: T6, LIN7A, O14910
# T6 sequence (O14910 103-200, limits assumed, looked up): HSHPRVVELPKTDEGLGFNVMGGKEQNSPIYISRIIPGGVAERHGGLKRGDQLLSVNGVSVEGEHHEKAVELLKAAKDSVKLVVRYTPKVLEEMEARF
# FRMPD4, Q14CM0 = molecular target: FRMPD4, Q14CM0
# DLG3_2, Q92796 = molecular target: T7, DLG3_2, Q92796
# T7 sequence (Q92796 221-321, limits assumed, looked up): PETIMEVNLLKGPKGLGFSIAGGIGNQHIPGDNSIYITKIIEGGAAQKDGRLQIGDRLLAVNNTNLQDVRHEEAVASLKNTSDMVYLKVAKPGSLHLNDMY
# GRIP1_5, Q9Y3R0 = molecular target: T8, GRIP1_5, Q9Y3R0
# T8 sequence (Q9Y3R0 568-668, limits assumed, looked up): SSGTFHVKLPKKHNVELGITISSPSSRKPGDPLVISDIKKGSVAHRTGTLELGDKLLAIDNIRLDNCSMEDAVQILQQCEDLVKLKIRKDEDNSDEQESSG
# APBA1_1, Q02410 = molecular target: T9, APBA1_1, Q02410
# T9 sequence (Q02410 651-752, limits assumed, looked up): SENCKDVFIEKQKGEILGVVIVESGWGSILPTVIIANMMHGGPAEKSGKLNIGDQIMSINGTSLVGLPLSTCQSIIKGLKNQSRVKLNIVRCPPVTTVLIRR
# MAGI3_2, Q5TCQ9 = molecular target: MAGI3_2, Q5TCQ9
# IL16_1, Q14005 = molecular target: IL16_1, Q14005
# MPP6, Q9NZW5 = molecular target: T10, MPP6, Q9NZW5
# T10 sequence (Q9NZW5 125-219, limits assumed, looked up): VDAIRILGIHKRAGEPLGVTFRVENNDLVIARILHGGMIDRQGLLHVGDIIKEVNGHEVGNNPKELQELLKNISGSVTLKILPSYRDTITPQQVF
# Chain of MAGI2_3, Q86UL8 (Q86UL8 600-682): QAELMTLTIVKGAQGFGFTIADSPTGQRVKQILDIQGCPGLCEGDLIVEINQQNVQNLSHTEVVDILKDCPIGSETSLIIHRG
# Chain of TJP2_1, Q9UDY2 (Q9UDY2 24-128): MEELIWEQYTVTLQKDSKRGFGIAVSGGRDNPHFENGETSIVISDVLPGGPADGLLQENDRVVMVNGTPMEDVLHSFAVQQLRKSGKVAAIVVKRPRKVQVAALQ
# Chain of TJP1_2, Q07157 (Q07157 181-274): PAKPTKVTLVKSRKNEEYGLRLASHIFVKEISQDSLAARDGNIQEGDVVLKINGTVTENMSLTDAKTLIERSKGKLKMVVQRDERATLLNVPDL
# Chain of DLG2_2, Q15700 (Q15700 189-283): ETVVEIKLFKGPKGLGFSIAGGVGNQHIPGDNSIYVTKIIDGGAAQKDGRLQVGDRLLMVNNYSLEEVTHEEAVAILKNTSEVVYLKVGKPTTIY
# Chain of MAGI3_2, Q5TCQ9 (Q5TCQ9 398-503): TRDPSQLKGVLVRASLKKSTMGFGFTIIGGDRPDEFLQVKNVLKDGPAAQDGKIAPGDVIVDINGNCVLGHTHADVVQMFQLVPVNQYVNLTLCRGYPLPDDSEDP
# Chain of FRMPD4, Q14CM0 (Q14CM0 67-160): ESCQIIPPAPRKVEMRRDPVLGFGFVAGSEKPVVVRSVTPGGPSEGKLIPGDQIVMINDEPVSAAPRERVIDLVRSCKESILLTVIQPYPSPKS
# Chain of DLG4_3, P78352 (P78352 306-403): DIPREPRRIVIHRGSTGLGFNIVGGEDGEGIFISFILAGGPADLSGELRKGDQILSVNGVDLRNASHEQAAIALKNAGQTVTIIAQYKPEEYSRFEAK
# Chain of GRASP, Q7Z6J2 (Q7Z6J2 96-193): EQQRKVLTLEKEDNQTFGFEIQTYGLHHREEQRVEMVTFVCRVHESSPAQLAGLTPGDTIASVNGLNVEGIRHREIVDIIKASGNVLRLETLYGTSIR
# Chain of SCRIB_3, Q14160 (Q14160 999-1103): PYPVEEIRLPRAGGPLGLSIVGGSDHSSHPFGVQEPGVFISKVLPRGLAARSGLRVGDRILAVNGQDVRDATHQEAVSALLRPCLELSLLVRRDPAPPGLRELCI
# Chain of LDB3, O75112 (O75112 1-94): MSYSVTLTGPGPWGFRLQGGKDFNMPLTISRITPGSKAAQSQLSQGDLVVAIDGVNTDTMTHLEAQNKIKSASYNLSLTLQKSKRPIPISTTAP
# Chain of DLG5_1, Q8TDM6 (Q8TDM6 617-713): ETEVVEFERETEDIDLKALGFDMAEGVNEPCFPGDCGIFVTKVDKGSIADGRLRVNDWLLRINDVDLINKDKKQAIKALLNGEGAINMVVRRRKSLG
# Chain of SCRIB_2, Q14160 (Q14160 857-960): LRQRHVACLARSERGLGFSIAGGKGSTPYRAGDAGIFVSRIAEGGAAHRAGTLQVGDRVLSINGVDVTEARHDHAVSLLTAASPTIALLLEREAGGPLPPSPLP
# Chain of PDLIM1, O00151 (O00151 1-87): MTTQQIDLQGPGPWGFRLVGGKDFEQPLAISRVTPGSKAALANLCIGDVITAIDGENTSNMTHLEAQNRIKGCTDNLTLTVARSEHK
# Chain of ARHGEF12, Q9NZN5-2 (Q9NZN5 other isoform, or with tags, fused parts or gaps): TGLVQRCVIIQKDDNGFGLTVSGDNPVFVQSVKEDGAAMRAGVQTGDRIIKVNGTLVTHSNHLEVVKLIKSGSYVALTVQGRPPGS
# Chain of IL16_1, Q14005 (Q14005 210-306): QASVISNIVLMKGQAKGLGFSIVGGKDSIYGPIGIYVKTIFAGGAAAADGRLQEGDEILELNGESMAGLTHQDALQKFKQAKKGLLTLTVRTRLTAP
# Chain of MAGI1_2, Q96QZ7 (Q96QZ7 456-580): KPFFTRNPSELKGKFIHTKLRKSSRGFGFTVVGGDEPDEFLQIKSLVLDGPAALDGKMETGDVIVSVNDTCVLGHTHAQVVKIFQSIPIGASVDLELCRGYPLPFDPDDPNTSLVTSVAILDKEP
# Chain of MAGI2_2, Q86UL8 (Q86UL8 410-522): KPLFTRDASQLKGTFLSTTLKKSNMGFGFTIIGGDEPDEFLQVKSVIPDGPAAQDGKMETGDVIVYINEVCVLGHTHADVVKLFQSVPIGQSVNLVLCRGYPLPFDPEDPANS
Binder,"pKd (MAGI2_3, Q86UL8)","pKd (ARHGEF12, Q9NZN5-2)","pKd (MAGI2_2, Q86UL8)","pKd (SCRIB_3, Q14160)","pKd (GRASP, Q7Z6J2)","pKd (MPDZ_5, O75970)","pKd (DLG2_2, Q15700)","pKd (DLG5_1, Q8TDM6)","pKd (PDLIM1, O00151)","pKd (DLG4_3, P78352)","pKd (SHANK1, Q9Y566)","pKd (TJP1_2, Q07157)","pKd (GORASP2, Q9H8Y8)","pKd (LDB3, O75112)","pKd (TJP2_1, Q9UDY2)","pKd (SCRIB_2, Q14160)","pKd (MAGI1_2, Q96QZ7)","pKd (SIPA1L2, Q9P2F8)","pKd (RADIL, Q96JH8)","pKd (DLG3_3, Q92796)",other results
B1,below the threshold,4.84,4.71,4.11,4.71,below the threshold,3.82,below the threshold,below the threshold,below the threshold,4.91,below the threshold,below the threshold,below the threshold,3.82,below the threshold,4.7,below the threshold,below the threshold,below the threshold,"pKd (LIN7A, O14910): below the threshold; pKd (FRMPD4, Q14CM0): 3.97; pKd (DLG3_2, Q92796): below the threshold; pKd (GRIP1_5, Q9Y3R0): below the threshold; pKd (APBA1_1, Q02410): below the threshold; pKd (MAGI3_2, Q5TCQ9): 4.47; pKd (IL16_1, Q14005): below the threshold; pKd (MPP6, Q9NZW5): below the threshold"
B2,below the threshold,4.91,4.33,3.52,4.32,below the threshold,4.15,below the threshold,below the threshold,3.74,below the threshold,below the threshold,3.92,below the threshold,below the threshold,below the threshold,4.54,below the threshold,3.97,below the threshold,"pKd (LIN7A, O14910): below the threshold; pKd (FRMPD4, Q14CM0): below the threshold; pKd (DLG3_2, Q92796): 4.6; pKd (GRIP1_5, Q9Y3R0): below the threshold; pKd (APBA1_1, Q02410): below the threshold; pKd (MAGI3_2, Q5TCQ9): 4.62; pKd (IL16_1, Q14005): below the threshold; pKd (MPP6, Q9NZW5): 3.54"
B3,below the threshold,below the threshold,below the threshold,3.58,below the threshold,4.2,below the threshold,below the threshold,below the threshold,below the threshold,below the threshold,4.69,5.82,below the threshold,4.6,below the threshold,below the threshold,below the threshold,5.17,below the threshold,"pKd (LIN7A, O14910): below the threshold; pKd (FRMPD4, Q14CM0): 3.68; pKd (DLG3_2, Q92796): below the threshold; pKd (GRIP1_5, Q9Y3R0): below the threshold; pKd (APBA1_1, Q02410): below the threshold; pKd (MAGI3_2, Q5TCQ9): 4.03; pKd (IL16_1, Q14005): 3.79; pKd (MPP6, Q9NZW5): 3.83"
B4,below the threshold,below the threshold,below the threshold,4.12,3.72,below the threshold,below the threshold,below the threshold,3.75,below the threshold,3.84,below the threshold,below the threshold,3.88,below the threshold,below the threshold,below the threshold,below the threshold,4.78,below the threshold,"pKd (LIN7A, O14910): below the threshold; pKd (FRMPD4, Q14CM0): 4.9; pKd (DLG3_2, Q92796): below the threshold; pKd (GRIP1_5, Q9Y3R0): below the threshold; pKd (APBA1_1, Q02410): below the threshold; pKd (MAGI3_2, Q5TCQ9): 3.66; pKd (IL16_1, Q14005): below the threshold; pKd (MPP6, Q9NZW5): below the threshold"
B5,below the threshold,below the threshold,below the threshold,below the threshold,below the threshold,below the threshold,3.86,4.06,below the threshold,below the threshold,3.78,below the threshold,3.67,below the threshold,below the threshold,below the threshold,below the threshold,3.58,below the threshold,3.75,"pKd (LIN7A, O14910): below the threshold; pKd (FRMPD4, Q14CM0): below the threshold; pKd (DLG3_2, Q92796): 4.21; pKd (GRIP1_5, Q9Y3R0): 3.54; pKd (APBA1_1, Q02410): below the threshold; pKd (MAGI3_2, Q5TCQ9): below the threshold; pKd (IL16_1, Q14005): below the threshold; pKd (MPP6, Q9NZW5): below the threshold"
